According to article PMC6499326 (Genes & Development, 2019):

Assays:
[1] = biological target: T1, His-NRDE2^111–1164 (human, UniProt Q9H7Z3 111-1164); assay: pull-down
T1 sequence: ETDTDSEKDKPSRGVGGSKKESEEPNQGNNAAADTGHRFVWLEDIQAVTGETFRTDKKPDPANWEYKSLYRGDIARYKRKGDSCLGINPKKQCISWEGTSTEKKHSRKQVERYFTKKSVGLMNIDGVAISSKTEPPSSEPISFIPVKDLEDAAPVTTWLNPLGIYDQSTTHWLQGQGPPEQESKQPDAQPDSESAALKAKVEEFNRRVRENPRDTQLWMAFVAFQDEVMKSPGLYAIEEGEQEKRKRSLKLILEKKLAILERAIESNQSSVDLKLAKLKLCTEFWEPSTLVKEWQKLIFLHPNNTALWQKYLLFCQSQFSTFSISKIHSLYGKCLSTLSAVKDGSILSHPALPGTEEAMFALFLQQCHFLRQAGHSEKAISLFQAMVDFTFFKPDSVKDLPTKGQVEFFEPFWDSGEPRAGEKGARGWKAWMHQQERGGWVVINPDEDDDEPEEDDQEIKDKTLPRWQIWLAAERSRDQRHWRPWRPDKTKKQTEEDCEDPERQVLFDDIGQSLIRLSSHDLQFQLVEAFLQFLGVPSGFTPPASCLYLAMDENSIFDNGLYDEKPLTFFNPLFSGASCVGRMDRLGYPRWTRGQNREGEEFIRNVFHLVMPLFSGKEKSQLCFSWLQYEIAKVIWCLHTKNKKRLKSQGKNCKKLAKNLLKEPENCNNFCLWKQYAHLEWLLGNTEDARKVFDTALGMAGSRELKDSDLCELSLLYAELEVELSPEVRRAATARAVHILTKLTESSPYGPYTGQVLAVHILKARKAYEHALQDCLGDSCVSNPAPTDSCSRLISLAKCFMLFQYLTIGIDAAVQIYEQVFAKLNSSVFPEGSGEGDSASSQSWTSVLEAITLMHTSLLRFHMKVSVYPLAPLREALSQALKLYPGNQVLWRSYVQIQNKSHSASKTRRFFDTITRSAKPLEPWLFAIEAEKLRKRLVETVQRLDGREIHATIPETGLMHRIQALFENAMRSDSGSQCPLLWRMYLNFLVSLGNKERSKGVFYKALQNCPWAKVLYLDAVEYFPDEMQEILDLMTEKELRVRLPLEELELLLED

[2] = biological target: T2, His-MTR4^71–1042 (human, UniProt P42285 71-1042); assay: SEC
T2 sequence: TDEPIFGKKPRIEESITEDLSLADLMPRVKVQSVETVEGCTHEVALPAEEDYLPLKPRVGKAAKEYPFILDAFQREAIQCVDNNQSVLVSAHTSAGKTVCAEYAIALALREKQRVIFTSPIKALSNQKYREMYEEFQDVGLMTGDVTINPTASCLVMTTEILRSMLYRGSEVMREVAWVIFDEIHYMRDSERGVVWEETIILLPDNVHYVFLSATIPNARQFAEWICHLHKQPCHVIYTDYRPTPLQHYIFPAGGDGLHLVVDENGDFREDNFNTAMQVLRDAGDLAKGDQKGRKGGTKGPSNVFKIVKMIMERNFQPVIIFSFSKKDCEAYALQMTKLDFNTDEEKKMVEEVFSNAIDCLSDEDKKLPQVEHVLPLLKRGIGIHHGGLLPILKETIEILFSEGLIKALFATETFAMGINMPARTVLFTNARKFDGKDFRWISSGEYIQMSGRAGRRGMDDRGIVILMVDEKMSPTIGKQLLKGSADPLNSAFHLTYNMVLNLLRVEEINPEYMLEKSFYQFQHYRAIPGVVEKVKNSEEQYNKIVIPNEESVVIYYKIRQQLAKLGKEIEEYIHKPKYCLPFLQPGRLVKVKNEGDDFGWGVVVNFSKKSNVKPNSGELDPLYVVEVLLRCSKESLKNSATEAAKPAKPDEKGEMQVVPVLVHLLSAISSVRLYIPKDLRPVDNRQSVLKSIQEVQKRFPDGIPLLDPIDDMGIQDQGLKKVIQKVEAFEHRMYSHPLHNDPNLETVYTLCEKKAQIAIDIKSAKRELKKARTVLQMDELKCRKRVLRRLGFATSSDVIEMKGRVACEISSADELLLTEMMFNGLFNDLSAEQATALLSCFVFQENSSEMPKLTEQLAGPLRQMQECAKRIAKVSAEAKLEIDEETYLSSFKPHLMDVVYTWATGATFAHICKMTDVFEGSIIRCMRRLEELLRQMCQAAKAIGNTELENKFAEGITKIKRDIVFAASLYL

[3] = biological target: T3, MTR4;NRDE2 MID (Homo sapiens;Homo sapiens, UniProt P42285;Q9H7Z3 71-1042;163-266, |); assay: EMSA
T3 sequence 1: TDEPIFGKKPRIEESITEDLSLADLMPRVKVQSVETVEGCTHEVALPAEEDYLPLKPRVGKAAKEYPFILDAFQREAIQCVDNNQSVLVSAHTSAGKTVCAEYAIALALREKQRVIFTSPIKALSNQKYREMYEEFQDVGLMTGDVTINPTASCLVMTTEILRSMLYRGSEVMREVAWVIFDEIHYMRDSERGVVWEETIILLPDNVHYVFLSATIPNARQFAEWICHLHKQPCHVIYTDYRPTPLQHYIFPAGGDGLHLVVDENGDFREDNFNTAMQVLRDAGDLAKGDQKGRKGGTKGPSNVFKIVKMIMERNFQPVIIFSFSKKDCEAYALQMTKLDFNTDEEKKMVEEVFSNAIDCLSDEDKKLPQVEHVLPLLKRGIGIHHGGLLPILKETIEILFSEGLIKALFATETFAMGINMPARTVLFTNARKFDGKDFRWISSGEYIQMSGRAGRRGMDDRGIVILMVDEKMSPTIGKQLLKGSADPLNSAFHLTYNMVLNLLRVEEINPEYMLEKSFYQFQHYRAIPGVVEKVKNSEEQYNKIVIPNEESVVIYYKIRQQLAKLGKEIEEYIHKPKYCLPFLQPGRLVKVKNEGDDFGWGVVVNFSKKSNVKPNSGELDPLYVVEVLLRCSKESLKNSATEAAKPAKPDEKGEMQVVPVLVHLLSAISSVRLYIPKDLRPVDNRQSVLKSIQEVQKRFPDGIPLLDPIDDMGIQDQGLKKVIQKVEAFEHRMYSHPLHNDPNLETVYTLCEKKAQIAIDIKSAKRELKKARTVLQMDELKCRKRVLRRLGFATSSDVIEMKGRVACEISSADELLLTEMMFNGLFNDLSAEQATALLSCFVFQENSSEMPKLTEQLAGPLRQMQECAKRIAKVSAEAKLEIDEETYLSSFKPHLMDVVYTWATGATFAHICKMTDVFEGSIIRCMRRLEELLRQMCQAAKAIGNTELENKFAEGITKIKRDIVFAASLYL
T3 sequence 2: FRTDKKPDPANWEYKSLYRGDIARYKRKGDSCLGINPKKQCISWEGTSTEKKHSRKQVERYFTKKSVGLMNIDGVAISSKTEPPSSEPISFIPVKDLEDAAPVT

B1: MBP-MTR4^FL (natural protein)
chain: MADAFGDELFSVFEGDSTTAAGTKKDKEKDKGKWKGPPGSADKAGKRFDGKLQSESTNNGKNKRDVDFEGTDEPIFGKKPRIEESITEDLSLADLMPRVKVQSVETVEGCTHEVALPAEEDYLPLKPRVGKAAKEYPFILDAFQREAIQCVDNNQSVLVSAHTSAGKTVCAEYAIALALREKQRVIFTSPIKALSNQKYREMYEEFQDVGLMTGDVTINPTASCLVMTTEILRSMLYRGSEVMREVAWVIFDEIHYMRDSERGVVWEETIILLPDNVHYVFLSATIPNARQFAEWICHLHKQPCHVIYTDYRPTPLQHYIFPAGGDGLHLVVDENGDFREDNFNTAMQVLRDAGDLAKGDQKGRKGGTKGPSNVFKIVKMIMERNFQPVIIFSFSKKDCEAYALQMTKLDFNTDEEKKMVEEVFSNAIDCLSDEDKKLPQVEHVLPLLKRGIGIHHGGLLPILKETIEILFSEGLIKALFATETFAMGINMPARTVLFTNARKFDGKDFRWISSGEYIQMSGRAGRRGMDDRGIVILMVDEKMSPTIGKQLLKGSADPLNSAFHLTYNMVLNLLRVEEINPEYMLEKSFYQFQHYRAIPGVVEKVKNSEEQYNKIVIPNEESVVIYYKIRQQLAKLGKEIEEYIHKPKYCLPFLQPGRLVKVKNEGDDFGWGVVVNFSKKSNVKPNSGELDPLYVVEVLLRCSKESLKNSATEAAKPAKPDEKGEMQVVPVLVHLLSAISSVRLYIPKDLRPVDNRQSVLKSIQEVQKRFPDGIPLLDPIDDMGIQDQGLKKVIQKVEAFEHRMYSHPLHNDPNLETVYTLCEKKAQIAIDIKSAKRELKKARTVLQMDELKCRKRVLRRLGFATSSDVIEMKGRVACEISSADELLLTEMMFNGLFNDLSAEQATALLSCFVFQENSSEMPKLTEQLAGPLRQMQECAKRIAKVSAEAKLEIDEETYLSSFKPHLMDVVYTWATGATFAHICKMTDVFEGSIIRCMRRLEELLRQMCQAAKAIGNTELENKFAEGITKIKRDIVFAASLYL
Does B1 bind [1]?
Result: binds

B2: untagged NRDE2^111–1164 (domain or fragment)
chain: ETDTDSEKDKPSRGVGGSKKESEEPNQGNNAAADTGHRFVWLEDIQAVTGETFRTDKKPDPANWEYKSLYRGDIARYKRKGDSCLGINPKKQCISWEGTSTEKKHSRKQVERYFTKKSVGLMNIDGVAISSKTEPPSSEPISFIPVKDLEDAAPVTTWLNPLGIYDQSTTHWLQGQGPPEQESKQPDAQPDSESAALKAKVEEFNRRVRENPRDTQLWMAFVAFQDEVMKSPGLYAIEEGEQEKRKRSLKLILEKKLAILERAIESNQSSVDLKLAKLKLCTEFWEPSTLVKEWQKLIFLHPNNTALWQKYLLFCQSQFSTFSISKIHSLYGKCLSTLSAVKDGSILSHPALPGTEEAMFALFLQQCHFLRQAGHSEKAISLFQAMVDFTFFKPDSVKDLPTKGQVEFFEPFWDSGEPRAGEKGARGWKAWMHQQERGGWVVINPDEDDDEPEEDDQEIKDKTLPRWQIWLAAERSRDQRHWRPWRPDKTKKQTEEDCEDPERQVLFDDIGQSLIRLSSHDLQFQLVEAFLQFLGVPSGFTPPASCLYLAMDENSIFDNGLYDEKPLTFFNPLFSGASCVGRMDRLGYPRWTRGQNREGEEFIRNVFHLVMPLFSGKEKSQLCFSWLQYEIAKVIWCLHTKNKKRLKSQGKNCKKLAKNLLKEPENCNNFCLWKQYAHLEWLLGNTEDARKVFDTALGMAGSRELKDSDLCELSLLYAELEVELSPEVRRAATARAVHILTKLTESSPYGPYTGQVLAVHILKARKAYEHALQDCLGDSCVSNPAPTDSCSRLISLAKCFMLFQYLTIGIDAAVQIYEQVFAKLNSSVFPEGSGEGDSASSQSWTSVLEAITLMHTSLLRFHMKVSVYPLAPLREALSQALKLYPGNQVLWRSYVQIQNKSHSASKTRRFFDTITRSAKPLEPWLFAIEAEKLRKRLVETVQRLDGREIHATIPETGLMHRIQALFENAMRSDSGSQCPLLWRMYLNFLVSLGNKERSKGVFYKALQNCPWAKVLYLDAVEYFPDEMQEILDLMTEKELRVRLPLEELELLLED
How did the “stoichiometry N” value [2] turn out when B2 was run?
Its value is 1.

B3: 5' FAM RNA (EMSA) (ssRNA)
RNA: UGUCUGACUGAAGGACCAGGUGCUGUCUGA
How did the binding signal [3] turn out when B3 was run?
The binding signal was ~8 fold higher affinity than MTR4 alone.
